According to article PMC12824264:

Target: BMP9 growth factor domain (GFD) dimer (human) (UniProt Q9UK05)
Assay: ELISA; displacement assay: anti-human CD105 antibody coated; sENG(M):BMP9 or sENG(D):BMP9 captured 2 h at room temperature; BMPRII or ActRIIB ECD at 0x, 1x, 5x, 25x, 125x molar excess for 30 min; BMP9 left in the complex detected with biotinylated anti-BMP9

Chain of BMP9 growth factor domain (GFD) dimer (human) (Q9UK05 320-429): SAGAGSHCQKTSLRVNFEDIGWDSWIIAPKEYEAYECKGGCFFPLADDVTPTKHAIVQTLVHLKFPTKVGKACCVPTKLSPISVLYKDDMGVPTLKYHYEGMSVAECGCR

percent displacement of sENG from the sENG(D):BMP9 complex at 125-fold molar excess: > 50%
Substance: BMP receptor type II (BMPRII) extracellular domain (from UniProt Q13873 27-150) (domain or fragment)
